± gives the uncertainty stated by the source.
Assay: specific initial activity, cyclohex-2-enone reduction (U mg-1); higher = more active
Protocol: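 Purified His-tagged ene reductases in 50 mM sodium phosphate pH 7.4 with 0-30% (v/v) organic co-solvent. Melting temperature was measured by the ThermoFMN assay (FMN fluorescence, 20-90 °C at 1 °C/min, inflection point, triplicate). Specific initial activity was measured with 10 mM cyclohex-2-enone and 0.2 mM NAD(P)H (NADH for LacER) as A340 depletion, at room temperature (DMSO, 2-propanol, n-propanol) or 25 °C (EtOH, MeOH), in triplicate. The TsOYE Tm is above the 90 °C measurement range.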

[1] = co-solvent: 2-propanol, co-solvent concentration (% v/v): 0
[2] = co-solvent: 2-propanol, co-solvent concentration (% v/v): 5
[3] = co-solvent: 2-propanol, co-solvent concentration (% v/v): 10
[4] = co-solvent: 2-propanol, co-solvent concentration (% v/v): 15
[5] = co-solvent: 2-propanol, co-solvent concentration (% v/v): 20
[6] = co-solvent: 2-propanol, co-solvent concentration (% v/v): 25
[7] = co-solvent: 2-propanol, co-solvent concentration (% v/v): 30
[8] = co-solvent: dimethyl sulfoxide, co-solvent concentration (% v/v): 0
[9] = co-solvent: dimethyl sulfoxide, co-solvent concentration (% v/v): 5
[10] = co-solvent: dimethyl sulfoxide, co-solvent concentration (% v/v): 10
[11] = co-solvent: dimethyl sulfoxide, co-solvent concentration (% v/v): 15
[12] = co-solvent: dimethyl sulfoxide, co-solvent concentration (% v/v): 20
[13] = co-solvent: dimethyl sulfoxide, co-solvent concentration (% v/v): 25
[14] = co-solvent: dimethyl sulfoxide, co-solvent concentration (% v/v): 30
[15] = co-solvent: ethanol, co-solvent concentration (% v/v): 0
[16] = co-solvent: ethanol, co-solvent concentration (% v/v): 5
[17] = co-solvent: ethanol, co-solvent concentration (% v/v): 10
[18] = co-solvent: ethanol, co-solvent concentration (% v/v): 15
[19] = co-solvent: ethanol, co-solvent concentration (% v/v): 20
[20] = co-solvent: ethanol, co-solvent concentration (% v/v): 25
[21] = co-solvent: ethanol, co-solvent concentration (% v/v): 30
[22] = co-solvent: methanol, co-solvent concentration (% v/v): 0
[23] = co-solvent: methanol, co-solvent concentration (% v/v): 5
[24] = co-solvent: methanol, co-solvent concentration (% v/v): 10
[25] = co-solvent: methanol, co-solvent concentration (% v/v): 15
[26] = co-solvent: methanol, co-solvent concentration (% v/v): 20
[27] = co-solvent: methanol, co-solvent concentration (% v/v): 25
[28] = co-solvent: methanol, co-solvent concentration (% v/v): 30
[29] = co-solvent: n-propanol, co-solvent concentration (% v/v): 0
[30] = co-solvent: n-propanol, co-solvent concentration (% v/v): 5
[31] = co-solvent: n-propanol, co-solvent concentration (% v/v): 10
[32] = co-solvent: n-propanol, co-solvent concentration (% v/v): 15
[33] = co-solvent: n-propanol, co-solvent concentration (% v/v): 20
[34] = co-solvent: n-propanol, co-solvent concentration (% v/v): 25
[35] = co-solvent: n-propanol, co-solvent concentration (% v/v): 30

Sequence	specific initial activity [1]	specific initial activity [2]	specific initial activity [3]	specific initial activity [4]	specific initial activity [5]	specific initial activity [6]	specific initial activity [7]	specific initial activity [8]	specific initial activity [9]	specific initial activity [10]	specific initial activity [11]	specific initial activity [12]	specific initial activity [13]	specific initial activity [14]	specific initial activity [15]	specific initial activity [16]	specific initial activity [17]	specific initial activity [18]	specific initial activity [19]	specific initial activity [20]	specific initial activity [21]	specific initial activity [22]	specific initial activity [23]	specific initial activity [24]	specific initial activity [25]	specific initial activity [26]	specific initial activity [27]	specific initial activity [28]	specific initial activity [29]	specific initial activity [30]	specific initial activity [31]	specific initial activity [32]	specific initial activity [33]	specific initial activity [34]	specific initial activity [35]
MNPKYKPLFEPFTFKSGVTINNRIAVAPMTHYASNEDGTISEAELDYIIPRSKEMGMVITACANVTPDGKAFPGQPAIHDDSNIPGLKKLAQAIQAQGAKAVVQIHHGGIECPSELVPQQDVVGPSDVFDNGKQIARALTEEEVENIVKAFGEATRRAIEAGFDGVEIHGANGYLIQQFYSPKTNQRTDRWGGSDEKRLAFPLAIVDEVKKAASEHAKGAFLVGYRLSPEEPETPGLTMTETYTLVDALGDKELDYLHISLMDVNSKARRGADPTRTRMDLLNERVGNKVPLIAVGSIHSADDALAVIENGIPLVAMGREILVDPNWTVKVKEGREKQIETVIKGTDKEKYHLPEPLWQAIVNTQGWVPYKD	5.75 ± 0.28	6.02 ± 0.29	6.11 ± 0.24	6.21 ± 0.37	6.17 ± 0.29	5.81 ± 0.49	5.26 ± 0.24	4.09 ± 0.12	4.4 ± 0.11	4.34 ± 0.17	4.41 ± 0.29	4.2 ± 0.38	4.35 ± 0.44	4.2 ± 0.46	5.73 ± 0.43	5.9 ± 0.14	6.22 ± 0.39	6.67 ± 0.56	6.21 ± 0.7	6.62 ± 0.84	5.96 ± 0.43	5.71 ± 0.54	6.14 ± 0.51	5.62 ± 0.49	5.36 ± 0.24	5.05 ± 0.21	5.09 ± 0.59	4.27 ± 0.27	5.25 ± 0.46	5.2 ± 0.41	4.82 ± 0.17	4.55 ± 0.2	4.07 ± 0.42	3.69 ± 0.3	2.94 ± 0.14
MSFVKDFKPQALGDTNLFKPIKIGNNELLHRAVIPPLTRMRALHPGNIPNRDWAVEYYTQRAQRPGTMIITEGAFISPQAGGYDNAPGVWSEEQMVEWTKIFNAIHEKKSFVWVQLWVLGWAAFPDNLARDGLRYDSASDNVFMDAEQEAKAKKANNPQHSLTKDEIKQYIKEYVQAAKNSIAAGADGVEIHSANGYLLNQFLDPHSNTRTDEYGGSIENRARFTLEVVDALVEAIGHEKVGLRLSPYGVFNSMSGGAETGIVAQYAYVAGELEKRAKAGKRLAFVHLVEPRVTNPFLTEGEGEYEGGSNDFVYSIWKGPVIRAGNFALHPEVVREEVKDKRTLIGYGRFFISNPDLVDRLEKGLPLNKYDRDTFYQMSAHGYIDYPTYEEALKLGWDKK	1.22 ± 0.04	1.54 ± 0.08	1.7 ± 0.08	1.86 ± 0.06	1.8 ± 0.1	2 ± 0.09	2.05 ± 0.07	1.31 ± 0.12	1.43 ± 0.16	1.35 ± 0.05	1.31 ± 0.14	1.38 ± 0.06	1.32 ± 0.13	1.32 ± 0.08	1.49 ± 0.06	1.58 ± 0.11	1.78 ± 0.1	1.97 ± 0.14	2 ± 0.17	2.1 ± 0.04	2.46 ± 0.11	1.55 ± 0.06	1.72 ± 0.05	1.81 ± 0.07	2.07 ± 0.07	2.23 ± 0.15	2.42 ± 0.11	2.58 ± 0.11	1.3 ± 0.03	1.59 ± 0.06	1.83 ± 0.2	1.81 ± 0.18	1.86 ± 0.15	1.84 ± 0.13	1.96 ± 0.14

Source: the supplement of paper PMC11208486
